Assay results published in patent US20190234935A1 (Janssen / Centocor, published 2019).

What was measured:
Test in all cases: FACS on transfected HEK293F cells
[1] = biological target: T1, N-terminally flag tagged full-length GFRα1 on transiently transfected HEK293F cells (Homo sapiens (Human), UniProt P56159 25-429)
T1 sequence: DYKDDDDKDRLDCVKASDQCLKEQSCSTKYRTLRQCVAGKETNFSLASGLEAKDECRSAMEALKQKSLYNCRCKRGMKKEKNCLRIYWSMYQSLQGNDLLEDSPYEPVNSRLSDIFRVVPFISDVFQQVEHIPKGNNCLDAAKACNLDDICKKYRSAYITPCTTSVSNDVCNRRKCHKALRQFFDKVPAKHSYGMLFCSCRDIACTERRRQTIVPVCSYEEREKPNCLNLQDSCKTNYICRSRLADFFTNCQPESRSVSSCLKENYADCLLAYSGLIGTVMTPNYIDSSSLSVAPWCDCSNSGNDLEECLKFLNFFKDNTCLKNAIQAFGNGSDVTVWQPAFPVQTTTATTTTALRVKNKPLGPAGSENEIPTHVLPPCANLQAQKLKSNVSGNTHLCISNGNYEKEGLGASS
Description: (§1) For the confirmation of specific binding of GDF15 to GFRAL, HEK293F cells expressing the N-terminally flag tagged GFRAL, GFRα1, GFRα2, GFRα3 or GFRα4 were incubated with Fc-GDF15 and the binding was analyzed by FACS. Briefly, transiently transfected cells were spun down two days post transfection, washed with 1×BD staining buffer (BD Pharmingen) and treated with 5 μg/ml of Fc-GDF15 by incubating at 4° C. for 1 hour in 1×BD staining buffer (BD Pharmingen). Cells were subsequently washed and stained with the secondary antibody, goat anti-human IgG conjugated with Alexa Fluor 647 (AF647, Life Technologies), at 4° C. for 30 min, for the detection of Fc-GDF15 binding. Cells from the same batch of transfection were also stained with an Fc isotype negative control, and with FITC-labeled anti-flag antibody (Sigma) for the detection of cell surface expression, and DAPI for live/dead staining. The stained cells were analyzed on BD Fortessa LSR.

[2] = biological target: T2, N-terminally flag tagged full-length GFRα2 on transiently transfected HEK293F cells (Homo sapiens (Human), UniProt O00451 22-444)
T2 sequence: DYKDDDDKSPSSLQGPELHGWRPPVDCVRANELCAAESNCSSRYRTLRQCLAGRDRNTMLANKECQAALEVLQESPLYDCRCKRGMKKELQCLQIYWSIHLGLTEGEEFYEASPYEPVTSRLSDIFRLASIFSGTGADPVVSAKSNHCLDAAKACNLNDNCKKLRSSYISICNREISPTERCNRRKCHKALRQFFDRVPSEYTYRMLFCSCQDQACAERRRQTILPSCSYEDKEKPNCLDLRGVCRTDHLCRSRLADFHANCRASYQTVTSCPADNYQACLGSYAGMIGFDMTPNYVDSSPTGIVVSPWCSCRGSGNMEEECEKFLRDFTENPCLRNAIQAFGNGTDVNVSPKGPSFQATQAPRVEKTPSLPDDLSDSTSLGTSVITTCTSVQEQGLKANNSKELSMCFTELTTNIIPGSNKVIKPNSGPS
Description: as §1

[3] = biological target: T3, N-terminally flag tagged full-length GFRα3 on transiently transfected HEK293F cells (Homo sapiens (Human), UniProt O60609 32-374)
T3 sequence: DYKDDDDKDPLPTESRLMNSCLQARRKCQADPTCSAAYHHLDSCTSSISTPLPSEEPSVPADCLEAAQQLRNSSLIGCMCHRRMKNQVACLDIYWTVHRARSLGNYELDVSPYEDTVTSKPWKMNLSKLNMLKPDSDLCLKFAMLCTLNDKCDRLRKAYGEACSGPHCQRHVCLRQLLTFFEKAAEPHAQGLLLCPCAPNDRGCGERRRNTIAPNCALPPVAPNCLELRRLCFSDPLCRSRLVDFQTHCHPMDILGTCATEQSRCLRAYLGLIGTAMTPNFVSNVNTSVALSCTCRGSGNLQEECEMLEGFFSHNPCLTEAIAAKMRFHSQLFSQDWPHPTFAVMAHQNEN
Description: as §1

[4] = biological target: T4, N-terminally flag tagged full-length GFRα4 on transiently transfected HEK293F cells (Homo sapiens (Human), UniProt Q9GZZ7 21-278)
T4 sequence: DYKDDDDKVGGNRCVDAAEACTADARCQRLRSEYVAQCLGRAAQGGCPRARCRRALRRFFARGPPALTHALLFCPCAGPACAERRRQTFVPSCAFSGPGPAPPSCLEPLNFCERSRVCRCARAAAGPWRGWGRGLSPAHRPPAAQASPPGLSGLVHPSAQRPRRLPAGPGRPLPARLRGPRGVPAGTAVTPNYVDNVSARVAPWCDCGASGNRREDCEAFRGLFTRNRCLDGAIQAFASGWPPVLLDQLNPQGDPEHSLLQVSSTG
Description: as §1

Measured: binding result

B1: heterodimeric Fc-GDF15 fusion molecule (Fc fusion)
chain 1: CPPCPAPEAAGGPSVFLFPPKPKDTLMISRTPEVTCVVVDVSQEDPEVQFNWYVDGVEVHNAKTKPREEQFNSTYRVVSVLTVLHQDWLNGKEYKCKVSNKGLPSSIEKTISKAKGQPREPQVYTLPPSQEEMTKNQVSLSCAVKGFYPSDIAVEWESNGQPENNYKTTPPVLDSDGSFFLVSRLTVDKSRWQEGNVFSCSVMHEALHNHYTQKSLSLSLGKGSGGGARNGDHCPLGPGRCCRLHTVRASLEDLGWADWVLSPREVQVTMCIGACPSQFRAANMHAQIKTSLHRLKPDTVPAPCCVPASYNPMVLIQKTDTGVSLQTYDDLLAKDCHCI
chain 2: CPPCPAPEAAGGPSVFLFPPKPKDTLMISRTPEVTCVVVDVSQEDPEVQFNWYVDGVEVHNAKTKPREEQFNSTYRVVSVLTVLHQDWLNGKEYKCKVSNKGLPSSIEKTISKAKGQPREPQVYTLPPSQEEMTKNQVSLWCLVKGFYPSDIAVEWESNGQPENNYKTTPPVLDSDGSFFLYSRLTVDKSRWQEGNVFSCSVMHEALHNHYTQKSLSLSLGK
notes: also called Fc-GDF15 ligand
no binding (tested: 5 µg/ml): all assays above
